Results on 1 molecule are retold here after patent US6420345 (CELL GENESYS, dated 2002).

A value given as a limit tells only on which side of the number the result lay.

For test [1], the target named is T1, CDK4/cyclin D1 complex (UniProt P11802 1-303; P24385 1-295).
T1 construct: Partially purified by a 20-40% ammonium sulfate preparation of Sf9 lysate; also called CDK4/cyclin D1 kinase; CDK4 complex
Nature of the test: in vitro kinase inhibition assay (32P incorporation into GST-Rb).
Method: Partial purification of CDK4/cyclin D1 was achieved by a 20–40% ammonium sulfate preparation of the cell lysate and was used in the assays. […] These assays were carried out in 96 well plates (Nunc, Naperville, Ill.) and monitored by γ-^32P-ATP incorporation.
The concentrations of GST-Rb and histone H1 were 4.4 mM and 19 mM, respectively, and the concentration of ATP was 50–60 mM. The reaction mixtures contained 50 mM Tris-Cl pH 7.5, 10 mM MgCl_2, and 1 mM DTT in a total volume of 50 or 100 µl. After incubation at 30° C. for 10–20 minutes, the reaction was terminated by the addition of a stop solution containing EDTA. The phosphorylated substrates were captured either by GST-Sepharose or TCA precipitation and then monitored for radioactivity (Microplate Scintillation Counter, Packard, Meriden, Conn.).

Another test addresses CDK2/cyclin A complex (UniProt P24941 1-298; P20248 1-432). Nature of the test: cell-based or functional assay.
The target in another test is CDC2/cyclin B complex (UniProt P06493 1-297; P14635 1-433). Nature of the test: cell-based or functional assay.
The next test deals with CDK2/cyclin E complex (UniProt P24941 1-298; P24864 16-410). Nature of the test: cell-based or functional assay.
Test [2] concerns the target T1, CDK4/cyclin D1 complex. Nature of the test: cell-based or functional assay.

T1 sequence (P11802 whole entry, chain 1 of 2): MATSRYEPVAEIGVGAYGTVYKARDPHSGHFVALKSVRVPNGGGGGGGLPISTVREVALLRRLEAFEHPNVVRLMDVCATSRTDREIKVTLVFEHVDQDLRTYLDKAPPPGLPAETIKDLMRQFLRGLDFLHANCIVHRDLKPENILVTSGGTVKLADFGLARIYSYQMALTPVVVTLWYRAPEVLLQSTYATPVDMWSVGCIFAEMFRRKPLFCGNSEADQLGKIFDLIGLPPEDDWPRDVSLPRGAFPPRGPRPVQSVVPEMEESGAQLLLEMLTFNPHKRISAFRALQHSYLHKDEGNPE
T1 sequence (P24385 whole entry, chain 2 of 2): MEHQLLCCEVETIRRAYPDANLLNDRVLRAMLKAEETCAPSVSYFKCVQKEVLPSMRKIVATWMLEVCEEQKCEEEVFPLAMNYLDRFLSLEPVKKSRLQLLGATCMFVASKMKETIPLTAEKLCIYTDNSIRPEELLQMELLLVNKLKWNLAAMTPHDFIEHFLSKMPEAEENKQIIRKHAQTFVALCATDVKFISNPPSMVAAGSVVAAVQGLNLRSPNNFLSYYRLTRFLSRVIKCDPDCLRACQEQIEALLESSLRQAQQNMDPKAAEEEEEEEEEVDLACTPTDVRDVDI
Chain of CDC2/cyclin B complex (P06493 whole entry, chain 1 of 2): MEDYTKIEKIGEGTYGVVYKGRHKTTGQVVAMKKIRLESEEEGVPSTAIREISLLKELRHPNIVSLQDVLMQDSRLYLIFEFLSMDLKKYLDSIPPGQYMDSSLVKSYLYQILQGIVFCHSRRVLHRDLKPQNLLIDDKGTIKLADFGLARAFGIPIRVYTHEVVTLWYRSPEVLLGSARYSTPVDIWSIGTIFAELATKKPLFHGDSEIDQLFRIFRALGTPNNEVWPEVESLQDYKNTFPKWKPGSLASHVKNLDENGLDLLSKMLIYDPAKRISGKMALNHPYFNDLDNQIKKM
Chain of CDC2/cyclin B complex (P14635 whole entry, chain 2 of 2): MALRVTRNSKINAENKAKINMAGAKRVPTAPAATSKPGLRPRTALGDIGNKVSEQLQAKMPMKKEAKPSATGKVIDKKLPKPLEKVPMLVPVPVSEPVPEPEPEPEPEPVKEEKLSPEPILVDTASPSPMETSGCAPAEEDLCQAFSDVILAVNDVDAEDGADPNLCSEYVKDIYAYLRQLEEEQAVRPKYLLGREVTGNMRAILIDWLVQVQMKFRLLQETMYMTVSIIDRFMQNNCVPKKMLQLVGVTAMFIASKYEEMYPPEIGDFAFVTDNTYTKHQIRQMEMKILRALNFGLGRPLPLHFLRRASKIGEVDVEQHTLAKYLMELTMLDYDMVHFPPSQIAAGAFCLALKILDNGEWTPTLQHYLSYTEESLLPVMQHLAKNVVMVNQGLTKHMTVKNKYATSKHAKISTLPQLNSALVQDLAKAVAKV

B1: human p16 (other)
chain: MEPAAGSSMEPSADWLATAAARGRVEEVRALLEAGALPNAPNSYGRRPIQVMMMGSARVAELLLLHGAEPNCADPATLTRPVHDAAREGFLDTLVVLHRAGARLDVRDAWGRLPVDLAEELGHRDVARYLRAAAGGTRGSNHARIDAAEGPSDIPD
notes: also called p16INK4
In the test with CDK4/cyclin D1 complex [1], B1 gave a Ki of 75 nM. For the same molecule, the “IC50, in vitro kinase assay” value in the test with CDK2/cyclin A complex is > 500 nM; in the test with CDC2/cyclin B complex, > 500 nM; in the test with CDK2/cyclin E complex, > 500 nM; with CDK4/cyclin D1 complex [2], 250 nM.

As usually defined, the Ki is the dissociation constant of the complex between target and ligand, obtained from inhibition or displacement. Read a low Ki as higher affinity.
